# Results as given in patent US20210332360.
# Assays:
# Experiment in all cases: flow
# [1] = molecular target: T1, Pisum sativum agglutinin (PSA) (Pisum sativum) (UniProt P02867+P02867); conditions: counter-target
# T1 sequence 1: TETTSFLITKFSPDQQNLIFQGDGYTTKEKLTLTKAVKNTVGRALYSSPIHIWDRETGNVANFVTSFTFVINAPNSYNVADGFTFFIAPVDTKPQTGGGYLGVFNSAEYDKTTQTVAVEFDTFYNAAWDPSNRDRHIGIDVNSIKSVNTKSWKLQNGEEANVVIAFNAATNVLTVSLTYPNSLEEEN
# T1 sequence 2: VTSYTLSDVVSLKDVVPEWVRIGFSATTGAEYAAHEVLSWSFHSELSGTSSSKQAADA
# [2] = molecular target: T2, DC-SIGN (DC-SIGNR/CD299) (Homo sapiens) (UniProt Q9H2X3); conditions: after the 5' primer region all dT replaced by 4 (alpha-D-mannose-triazole-modified C8-alkyne-dU); particle-displayed; SB with Mg, Ca, Mn
# T2 sequence: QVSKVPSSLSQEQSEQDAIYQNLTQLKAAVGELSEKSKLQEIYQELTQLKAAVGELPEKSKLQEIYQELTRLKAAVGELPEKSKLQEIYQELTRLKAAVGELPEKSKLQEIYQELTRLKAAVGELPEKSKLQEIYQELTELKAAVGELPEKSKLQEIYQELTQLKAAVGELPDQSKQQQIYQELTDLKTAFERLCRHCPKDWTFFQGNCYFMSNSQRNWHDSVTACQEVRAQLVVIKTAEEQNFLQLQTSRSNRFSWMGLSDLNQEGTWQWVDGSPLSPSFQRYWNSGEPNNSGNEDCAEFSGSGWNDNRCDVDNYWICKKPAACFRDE
# [3] = molecular target: T3, DC-SIGN (SIGNR1/CD209b) (Mus musculus) (UniProt Q8CJ91); conditions: after the 5' primer region all dT replaced by 4 (alpha-D-mannose-triazole-modified C8-alkyne-dU); counter-target; 3.5-fold weaker than human
# T3 sequence: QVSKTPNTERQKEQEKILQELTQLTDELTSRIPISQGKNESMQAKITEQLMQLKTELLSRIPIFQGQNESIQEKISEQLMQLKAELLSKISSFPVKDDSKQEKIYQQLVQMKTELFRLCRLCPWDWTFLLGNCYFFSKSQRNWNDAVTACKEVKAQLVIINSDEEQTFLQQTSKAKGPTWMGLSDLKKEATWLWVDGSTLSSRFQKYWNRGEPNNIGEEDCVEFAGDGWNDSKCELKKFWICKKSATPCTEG
sequence,measurement,setting,value
GATCCCAGTCCGAAGTAATCGTTGCATCTGCACGACTGGTGAGCTTGAGTGGCAGAAGAACTTGTGCAAACGGCTATAGG [3-1m],Kd,"[1]; after the 5' primer region all dT replaced by 4 (alpha-D-mannose-triazole-modified C8-alkyne-dU), natural dC",> 1000 nM
GATCCCAGTCCGAAGTAATCCAAGGGTAATTGGGAAATAAGGATGGGGTAATATGCAACCCTTGTGCAAACGGCTATAGG [D1],Kd,[2],3.6 nM
same,Kd,[3],12.5 nM
GATCCCAGTCCGAAGTAATCGTTGCATCTGCACGACTGGTGAGCTTGAGTGGCAGAAGAACTTGTGCAAACGGCTATAGG [3-1],Kd,"[1]; after the 5' primer region (GATCCCAGTCCGAAGTAATC, natural) all dT replaced by 4 (alpha-D-mannose-triazole-modified C8-alkyne-dU) and all dC by 2 (5-formyl-dC)",> 1000 nM
